Test [1] concerns the target T1, human TROP2-his protein (human, UniProt P09758 27-274).
T1 construct: Biotin-labelled in the ELISAs, unlabelled analyte in Biacore; also called biotin-labeled human TROP2-his protein; biotin human Trop2-his
T1 sequence: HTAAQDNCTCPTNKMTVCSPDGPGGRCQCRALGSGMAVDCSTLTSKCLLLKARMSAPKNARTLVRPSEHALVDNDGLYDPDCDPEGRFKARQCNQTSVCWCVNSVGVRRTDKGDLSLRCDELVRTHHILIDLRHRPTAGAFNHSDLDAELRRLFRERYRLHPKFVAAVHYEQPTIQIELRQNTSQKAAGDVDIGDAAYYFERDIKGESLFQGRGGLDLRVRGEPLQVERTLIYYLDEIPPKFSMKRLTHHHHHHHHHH
Description: capture ELISA, captured antibody, biotin human TROP2-his in solution, OD(450-630). On the technique in general: ELISA stands for enzyme-linked immunosorbent assay.

For test [2], the target named is T1, human TROP2-his protein. The test is described as follows: competitive ELISA: mouse A1H3C5H8E12 coated at 2 ug/mL, antibody premixed with biotin human TROP2-his; blocked: binding of TROP2-his to coated A1H3C5H8E12. The procedure:
The mouse anti-TROP2 antibodies were tested for epitope binding in a competitive ELISA assay. […] ELISA plates were washed once with wash buffer (PBS+0.05% v/v Tween-20, PBST) and then blocked with 200 μl blocking buffer (5% w/v non-fatty milk in PBST) for 2 hours at 37° C. While blocking, the anti-TROP2 antibodies or controls were diluted with biotin labeled human TROP2-his protein (SEQ ID NO: 67, 34 ng/mL in 2.5% wA non-fatty milk in PBST), starting at 80 nM with a 5-fold serial dilution, and incubated at room temperature for 40 minutes. After plate washing for 4 times, the antibody/TROP2-his protein mixtures were added to the antibody coated plates, 100 μl per well. After incubation at 37° C. for 40 minutes, plates were washed 4 times again using wash buffer. Then the plates were added and incubated with 100 μl Peroxidase Streptavidin (1:10000 dilution in PBST buffer. Jackson Immunoresearch, Cat #016-030-084) for 40 minutes at 37° C. Plates were washed again using wash buffer. Finally, TMB was added and the reaction was stopped using 1M H₂SO₄. The absorbance of each well was read on a microplate reader using dual wavelength mode with 450 nm for TMB and 630 nm as the reference wavelength, and the OD (450-630) values were plotted against antibody concentration. Data was analyzed using Graphpad Prism software and IC₅₀ values were reported.

Test [3] concerns the target T1, human TROP2-his protein. The test is described as follows: epitope grouping ELISA, 15 ug/ml antibody premixed with biotin human TROP2-his; competitor: coated BM2. Here is the method: Firstly, capture ELISA was performed to determine the concentration of biotin-labeled human Trop2 proteins appropriate for the epitope binning test. […] The plates were washed for 4 times, added with 100 μl/well of serially diluted biotin human Trop2-his proteins (SEQ ID NO: 67) in PBST with 2.5% non-fatty milk (starting from 1.3 μg/ml with a 5-fold serial dilution), and incubated for 40 min at 37° C. Then the plates were washed for 4 times and added with 100 μl/vell of HRP-streptavidin (Jackson Immuno Research, Cat #016-030-084). The plates were incubated for another 40 min at 37° C. Then the plates were washed again, and 100 μl/well TMB was added for color development at RT for 15 min followed by quenching with 50 μl 1M H₂SO₄. The OD values at 450 nm were read.
With the appropriate concentration determined above, epitope grouping ELISA was performed. […] ELISA plates were washed once with wash buffer (PBS+0.05% v/v Tween-20, PBST) and then blocked with 200 μl blocking buffer (5% w/w non-fatty milk in PBST) for 2 hours at 37° C. […] The mixtures were incubated at room temperature for 40 minutes. After plate washing for 4 times, the antibody/biotin-TROP2-his protein mixtures were added to the antibody coated plates, 100 μl per well, and incubated for another 40 min at 37° C. Then 100 μl/well of HRP-streptavidin was added and incubated for 40 min. Then OD₄₅₀ values were determined and the cross-competition capability was calculated (cross-competition capability of antibody X (%)=(OD₄₅₀ of Antibody X-[…] of Blank)/(OD₄₅₀ of no mAb-OD₄₃₀ of Blank)*100%).

Test [4] has as its target T1, human TROP2-his protein. Description: capture ELISA, antibody captured on anti-human IgG Fc coat, biotin human TROP2-his in solution, OD(450-630). Here is the method: Plates were washed once with wash buffer (PBS+0.05% v/v Tween-20, PBST) and then blocked with 200 μl/well blocking buffer (5% w/v non-fatty milk in PBST) for 2 hours at 37° C. […] Plates containing captured anti-TROP2 antibodies were incubated with biotin-labeled human TROP2-his protein (prepared in house, SEQ ID NO: 67, 56.7 ng/mL in 2.5% w/v non-fatty milk in PBST, 100 μl/well) for 40 minutes at 37° C., washed 4 times, and incubated with streptavidin conjugated HRP (1:10000 dilution in PBST, Jackson Immuno Research, Cat #016-030-084, 100 μl/well) for 40 minutes at 37° C. After a final wash, plates were incubated with 100 μl/well ELISA substrate TMB (Innoreagents, Cat #TMB-S-002) at room temperature. The reaction was stopped in 3-10 minutes at room temperature with 50 μl/well 1M H₂SO₄, and the absorbance of each well was read on a microplate reader using dual wavelength mode with 450 nm for TMB and 630 nm as the reference wavelength. The OD (450-630) values were plotted against antibody concentration. Data was analyzed using Graphpad Prism software and EC₅₀ values were reported.
For the Capture ELISA, AffiniPure F(ab′)₂ Fragment Goat Anti-Human IgG, Fcγ fragment specific (Jackson Immunoresearch, Cat #109-006-008) was used instead of AffiniPure Goat Anti-Mouse IgG, Fcγ fragment specific, 100 μl/well.

Broadly, the EC50 is the midpoint of the concentration-response curve. Lower therefore signals higher potency in that assay. For orientation: IC50 means the point on the concentration scale where inhibition reaches its midpoint. A low value points to inhibition by little substance.

B1: mouse antibody C1B3B12D2 (antibody, V domains shown)
VH: QVQLQQSGPELVRPGTSVKMSCKAAGYTFTKFWIGWVKQRPGHGLEWIGNIYPGGAYINYNENFKGKATLTADTFSSTAYMQLNSLTSADSAIYYCAREGSSGYWGQGTTLTVSS
VL: DIVMTQSPSSLTVTAGEKVTLSCKCSQSLLNSGTQENYLTWYQQKPGQPPKMLIYWASIREPGVPDRFTGSGSGTDFTLTINNVQAEDLAVYYCQHDYSYPFTFGSGTKLEIK
notes: Mouse monoclonal IgG purified from hybridoma supernatant
On to B1, for which, in the test with human TROP2-his protein [1], the EC50 amounted to 0.117 nM.

B2: mouse antibody A1E4F7D4 (antibody, V domains shown)
VH: QVQLQQSGAELAKPGTSVKMSCEASGYSFTTHWIHWMKQRPGQGLEWIGTIFPSNAYAVYNQKFRDRAIMTADRSSTTAYIQLTGLTSEDSAVYYCARASYFDYWGQGTTLTVSS
VL: DILLTQSPATLSVSPGERVTFSCRASQNIGTSIHWFQQRTTGSPRLLIKYASESISGIPSRFSGSGSGTDFTLHINSVESEDIAHYYCQHSHSWPFTFGSGTKLEIQ
notes: Mouse monoclonal IgG purified from hybridoma supernatant; also called Mouse A1E4F7D4
With B2, in the test with human TROP2-his protein [2], the IC50 was 0.621 nM. Besides, a half-maximal response with human TROP2-his protein [1] (EC50) required 0.261 nM.

B3: mouse antibody A1E11A12D1 (antibody, V domains shown)
VH: QVQLQQSGAELARPGASVKLSCMASGYTFTTYGISWVRQRTGQGLEWIGQIYPGSDYSYCDEDFKGKATLTADKSSSTAYMQLSSLTSEDSAVYFCARASYFDYWGQGTTLTVSS
VL: DILLTQSPAILSVSPGERVSFSCRASQTIGTAIHWYQQRANGSPRLLIKYASESISGIPSRFSGSGSGTDFALSINTVESEDFAYYYCQQSNNWPFTFGGGTKLEIR
notes: as for B1
In turn, B3 returned an IC50 in the test with human TROP2-his protein [2] of 0.933 nM.

B4: benchmark (in house prepared sacituzumab) (antibody, human IgG1, kappa, V domains shown)
VH: SVQLQQSGSELKKPGASVKVSCKASGYTFTNYGMNWVKQAPGQGLKWMGWINTYTGEPTYTDDFKGRFAFSLDTSVSTAYLQISSLKADDTAVYFCARGGFGSSYWYFDVWGQGSLVTVSS
VL: DIQLTQSPSSLSASVGDRVSITCKASQDVSIAVAWYQQKPGKAPKLLIYSASYRYTGVPDRFSGSGSGTDFTLTISSLQPEDFAVYYCQQHYITPLTFGAGTKVEIKR
notes: also called BM; BM1
On to B4, for which the OD450 with human TROP2-his protein [3] was 0.031 OD450. For the same molecule, in the test with human TROP2-his protein [4], the EC50 stood at 0.316 nM.

B5: huA1E4F7D4-V16 (antibody, human IgG1, kappa, V domains shown)
VH: QVQLVQSGAEVKKPGASVKVSCKASGYSFTTHWIHWVRQAPGQGLEWIGTIFPSNAYAVYNQKFRDRATMTADTSISTAYIELSRLRSDDTAVYYCARASYFDYWGQGTTVTVSS
VL: EIVLTQSPATLSLSPGERATLSCRASQNIGTSIHWFQQKPGGAPRLLIKYASESISGIPSRFSGSGSGTDFTLTISSLEPEDFAVYYCQHSHSWPFTFGQGTKLEIKR
notes: Positions of the X residues are given in the claims; also called humanized antibody huA1E4F7D4-V16
In the test with human TROP2-his protein [3], B5 returned an OD450 of 1.92 OD450. Also, the EC50 with human TROP2-his protein [4] was 0.054 nM.
